This passage reports response (ratio MT pellet/lysate) results from PMC7660477.

Assay in all cases: microtubule co-sedimentation (taxol-mediated polymerisation, sucrose gradient centrifugation) with western blot quantification
In general terms: Immunoblotting shows a protein as a band on a membrane.

For one test, the target named is EZRIN (UniProt P26040). To be noted: E18.5 forebrain, n = 3, mean ± s.e.m., parent: est. 0.10, read off a plot.
Another test concerns the target VAPA (UniProt Q9WV55). To be noted: E18.5 forebrain, n = 3, mean ± s.e.m., parent: est. 0.30, read off a plot.
In another test the target is VAPB (UniProt Q9QY76). To be noted: E18.5 forebrain, n = 3, mean ± s.e.m., parent: est. 0.27, read off a plot.
Another test has as its target KIF5C (UniProt P28738). To be noted: E18.5 forebrain, n = 3, mean ± s.e.m., parent: est. 0.61, read off a plot.
The target of a further test is REEP1 (UniProt Q8BGH4). The following applies: E18.5 forebrain, n = 3, mean ± s.e.m., parent: est. 0.28, read off a plot.
In test [1] the target is dynein intermediate chain (DYNC1I1/2) (UniProt O88485). The following applies: E18.5 forebrain; n = 3; mean ± s.e.m.; P<0.01; parent: est. 0.55; read off a plot.

As for “microtubules from the forebrain of E18.5 R402H/R402H littermate controls (no Cre; wild-type Tuba1a expressed) (from UniProt P68369;P99024)”, the response (ratio MT pellet/lysate) came to 0.12 in the test with EZRIN; 0.34 with VAPA; 0.14 with VAPB; 0.6 in the test with KIF5C; 0.05 with REEP1; 0.29 in test [1].
